Test results as given in patent US20230059690A1 (CYTOMX THERAPEUTICS, published 2023).
Each block holds one binder with its values, some of them ahead of it.

What was measured:
human PSMA = target: T1, human PSMA (human, UniProt Q04609 44-750); experiment: FACS on hPSMA (FIG. 2)
T1 construct: also called hPSMA; Human PSMA dimer (DT1596)

mouse PSMA = mouse PSMA (mouse, UniProt O35409 45-752, limits assumed); experiment: ELISA, Biacore and/or FACS (not said which for mouse)
mouse PSMA, sequence (O35409 45-752 limits assumed): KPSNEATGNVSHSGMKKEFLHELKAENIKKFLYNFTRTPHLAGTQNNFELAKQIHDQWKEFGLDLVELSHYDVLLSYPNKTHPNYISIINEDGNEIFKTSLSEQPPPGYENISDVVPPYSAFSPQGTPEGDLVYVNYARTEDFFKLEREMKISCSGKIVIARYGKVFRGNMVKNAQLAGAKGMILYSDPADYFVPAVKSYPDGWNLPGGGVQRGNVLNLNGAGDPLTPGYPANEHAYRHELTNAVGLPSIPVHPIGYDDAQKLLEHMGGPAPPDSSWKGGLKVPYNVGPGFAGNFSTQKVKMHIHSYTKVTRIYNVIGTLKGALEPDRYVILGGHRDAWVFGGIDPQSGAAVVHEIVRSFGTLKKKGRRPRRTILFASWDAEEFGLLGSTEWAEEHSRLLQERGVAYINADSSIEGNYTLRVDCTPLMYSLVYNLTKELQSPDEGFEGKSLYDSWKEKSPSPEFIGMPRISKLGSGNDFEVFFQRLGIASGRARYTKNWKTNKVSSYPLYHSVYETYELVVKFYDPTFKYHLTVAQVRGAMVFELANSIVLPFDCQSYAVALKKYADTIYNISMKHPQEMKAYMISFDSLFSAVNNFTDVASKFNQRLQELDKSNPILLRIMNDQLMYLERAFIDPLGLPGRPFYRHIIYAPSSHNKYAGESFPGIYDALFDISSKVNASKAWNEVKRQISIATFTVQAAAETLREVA

T1 sequence (Q04609 44-750 limits assumed): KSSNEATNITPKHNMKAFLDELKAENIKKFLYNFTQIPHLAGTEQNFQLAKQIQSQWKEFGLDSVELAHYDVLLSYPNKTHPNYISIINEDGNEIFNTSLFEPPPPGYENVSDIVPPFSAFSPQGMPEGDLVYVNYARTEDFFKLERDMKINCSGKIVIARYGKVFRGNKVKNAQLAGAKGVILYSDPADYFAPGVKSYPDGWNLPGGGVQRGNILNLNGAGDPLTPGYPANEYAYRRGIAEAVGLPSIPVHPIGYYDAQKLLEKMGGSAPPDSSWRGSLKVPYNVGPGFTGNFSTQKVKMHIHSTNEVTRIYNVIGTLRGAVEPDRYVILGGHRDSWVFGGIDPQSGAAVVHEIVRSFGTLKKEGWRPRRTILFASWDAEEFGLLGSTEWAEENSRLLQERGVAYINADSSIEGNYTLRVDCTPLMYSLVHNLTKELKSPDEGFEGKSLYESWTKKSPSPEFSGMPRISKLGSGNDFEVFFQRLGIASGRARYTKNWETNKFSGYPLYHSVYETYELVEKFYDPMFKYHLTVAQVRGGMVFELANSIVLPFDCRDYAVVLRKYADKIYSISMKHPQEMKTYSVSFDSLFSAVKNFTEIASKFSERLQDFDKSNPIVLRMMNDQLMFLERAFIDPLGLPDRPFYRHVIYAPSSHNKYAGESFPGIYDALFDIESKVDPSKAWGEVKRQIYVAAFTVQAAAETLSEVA

binding result (human PSMA): binds | binding result (mouse PSMA): no binding
B1: cHv75-2a7.G1(C99Y;L328C)k (antibody, V domains shown)
VH: EVQLVESGGGLVQPGGSLRLSCAASGITFSNYWMSWVRQAPGKGLEWVANIKKDGSEKFYVDSVKGRFTISRDNAKNSLYLQINSLRAEDTAMYYCAREIQLYLQHWGQGTLVTVSS
VL: DIQMTQSPSSVSASVGGRVTITCRASQGISNWLAWYQQKPGKAPKLLIYAASSLQSGVPSRFSGSGSGTDFTLTISNLQPEDFASYYCQQANSFPLTFGGGTKVEIKR
notes: also called [Ag]AB-5

binding result (human PSMA): binds | binding result (mouse PSMA): no binding
B2: cHv75-2a11.G1(L328C)k (antibody, human IgG1, kappa, V domains shown)
VH: QVQLVESGGGVVQPGRSLRLSCAASGFTFSSYDMHWVRQAPGKGLEWVAVIWYDGSNKYYADSLKGRFTISRDNSKNTLYLQMNSLRAEDTAVYYCARVIAARTFYYYGMDVWGQGTTVTVSS
VL: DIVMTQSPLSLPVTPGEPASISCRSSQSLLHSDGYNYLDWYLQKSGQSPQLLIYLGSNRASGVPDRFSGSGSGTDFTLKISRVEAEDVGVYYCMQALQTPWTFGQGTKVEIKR
notes: also called [Ag]AB-4; cHv75-2a11.G1(1,328C)k
